PMC9951844

Target: SARS-CoV-2 wildtype spike antigen of the SPR column (construct not stated) (SARS-CoV-2)
Assay: SPR

B1: YB9-258 (antibody, V domains shown)
VH: EVQLVESGGGLIQPGGSLRLSCAASGLTVSSNYMHWVRQAPGKGLEWVSVLYAGGSAFYADSVKGRFTISRNNSKNTLYLQMNSLRAEDTAIYYCARGLGDYLDSWGQGTLVTVSS
VL: DIQMTQSPSSVSASVGDRVTITCRASQGIGSWLAWYQQKPGKAPQLLIYAASTLQSGVPPRFSGSGSGTDFTLTITSLQPEDFASYYCQQANSVLALTFGGGTKVEIK
**Q.** With B1 as the binder, how does the Kd read?
**A.** 0.18 nM
